± gives the uncertainty stated by the source.
Assay: amyloid nucleation score (Sup35N fusion, yeast selection) (log enrichment); library NNK2; higher = more nucleation; inactive = no reads after selection
In short: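 On medium lacking adenine and uracil, psi-negative yeast expressing peptides of 20 random codons fused to Sup35N were grown 7 days at 30°C after a 24-hour induction with 100 μM copper sulfate. Illumina sequencing of input and output plasmid inserts gave the reads, and sequences under 100 input reads were excluded. The nucleation score is the DiMSum log enrichment of output over input reads, centred on the mode score of non-aggregating sequences.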

Row | Substance | amyloid nucleation score
1 | LFAIGEVTAYSGRLFSFYTQ | 1.79 ± 0.26
2 | LFEASPDAVTVSCDALGLGY | 0.324 ± 0.3
3 | LFIVSDKTFYKGTGCSDFLV | -1.28 ± 1
4 | LFLVTVFRCVFFSQGI | -1.9 ± 1.1
5 | LFNLACLRGRKTVWITDKLT | 0.012 ± 0.5
6 | LFPLI | 1.24 ± 0.44
7 | LFRGRMPFPRDSEYLRNRWK | -0.287 ± 0.28
8 | LFSYQYCVVRMVLFIRL | -0.588 ± 0.53
9 | LFVLK | -0.843 ± 0.21
10 | LFVSSDRHRSDESSGDACCL | -0.494 ± 0.76
11 | LFWDLSY | -0.959 ± 0.36
12 | LFYWLITENASNQTTMSVRE | -0.384 ± 0.54
13 | LGAGTSWAWLNLTYSEGTYK | 0.27 ± 0.8
14 | LGCHLVGLVNRGKNGGRISL | 0.315 ± 0.74
15 | LGEYNINLMDGWEGRCRPVR | 0.728 ± 0.43
16 | LGFSGNI | inactive
17 | LGGRYDVVMLIYLQSALFMG | 0.285 ± 1
18 | LGISLPIEVLSFSLSMARCI | -0.408 ± 0.45
19 | LGLDFLCIRYSGFKCTTF | 2.34 ± 0.14
20 | LGLMLIDLIWLRRYIYSWVR | 0.338 ± 0.34
21 | LGMFSYIS | 0.105 ± 0.44
22 | LGNIHIWTSV | -1.53 ± 0.49
23 | LGSGVILLVY | -0.643 ± 1
24 | LGSVGFAVWG | 0.17 ± 0.46
25 | LGSVYRQGSEGGWATYLNTY | inactive

Row | Substance | amyloid nucleation score
26 | LGTFKGKSEGPVV | 0.616 ± 0.64
27 | LGTIGYVDCFIDSITCYMVL | 7.953 ± 0.028
28 | LGTVRYLS | 0.399 ± 0.41
29 | LGVTLFFQGDSTTRWDLYPV | inactive
30 | LGVVWLS | -0.405 ± 0.3
31 | LGWQPNMWLISFISVSY | -0.81 ± 0.64
32 | LGYCGM | inactive
33 | LGYCSSSILCPCCHKILFDA | -0.521 ± 0.21
34 | LHCLRDIIKRNKDSFPQMWG | -0.607 ± 0.33
35 | LHGSGMENALSVPDMEQFPA | -0.159 ± 0.63
36 | LHLRNVMVQ | -0.681 ± 0.31
37 | LHSSSHVGGYSVGSRSFIHG | 0.294 ± 1.1
38 | LHSYPVKYGSRKDTRAKCGG | 0.605 ± 0.29
39 | LIADSCFFIQGDHPMLSELY | 0.888 ± 0.32
40 | LIDLKGQRSHGVTKGLTDFP | -0.406 ± 0.36
41 | LIFNYRVFLSFSW | -0.356 ± 1.1
42 | LIFYGSCIFQRFRIGVLSSG | -0.09 ± 0.65
43 | LIGCLEQG | -0.156 ± 0.56
44 | LIGIYLPWSL | -0.735 ± 0.45
45 | LIGVMGRCPGVLHLRSFVRD | 0.163 ± 0.37
46 | LILLNFTADSRGRRMLCCAW | -0.584 ± 0.76
47 | LILRGDS | -0.913 ± 0.4
48 | LILWRA | 0.456 ± 0.39
49 | LIMRIVWGGLQDQGSVRSSR | 0.855 ± 0.35
50 | LIRVILDGGKGKAGNTWVLQ | 5.17 ± 0.098

Row | Substance | amyloid nucleation score
51 | LIRVYDSDATTIDRLGVCRW | 0.726 ± 0.35
52 | LITFLCFYHLKHYGLHTVGW | -1.03 ± 0.36
53 | LITRVSSYCCWCLGFTIWAL | -0.77 ± 1
54 | LIVCLFISFFAYELCYESAF | 0.403 ± 0.62
55 | LIVSPCN | -0.059 ± 0.26
56 | LIYPANVWFGFYAEAGEVAQ | 4.21 ± 0.044
57 | LIYVDFHGIQVVCLYLCVHC | inactive
58 | LIYWCHAFVKT | -1.27 ± 0.53
59 | LKGYSQVMRSSIGLWCFRKD | -0.547 ± 0.49
60 | LKLGFRIQLPLLSYGYPFLW | -1.29 ± 0.39
61 | LKLTVPKDRRKKMKGRVALI | -0.064 ± 0.76
62 | LKTIMCFCQIYLFNSDPVHF | 3.37 ± 0.11
63 | LLAKSLDTGILD | 6.487 ± 0.025
64 | LLALSFLTVVFEFCLNSMMG | -1.28 ± 0.62
65 | LLCGRYGMECFTRA | inactive
66 | LLDSPEWWYVLCATNWVYYM | 2.88 ± 0.096
67 | LLFIVCRISLNIVGQVA | -0.137 ± 0.53
68 | LLFSLYDYRQIDFNSGHRHV | 4.37 ± 0.056
69 | LLGCYNYSFRWDSRASASR | -0.207 ± 0.55
70 | LLGPYKAHTQKYCWSSYV | -0.287 ± 0.56
71 | LLGWPRLYLWTE | 0.402 ± 0.42
72 | LLHDDVNTYLVRTVRR | 0.322 ± 0.31
73 | LLINDKCPYERMAGQWLFGS | 0.268 ± 0.65
74 | LLKFRVCPW | 4.5 ± 0.086
75 | LLKLTYTSM | 7.032 ± 0.037

Row | Substance | amyloid nucleation score
76 | LLLFVILCNSNWLCWPR | inactive
77 | LLLINFSYNALTKVRSEEYL | 3.86 ± 0.084
78 | LLLINLLFSASKLALSM | -0.679 ± 1.1
79 | LLLKPMFRVIILMYARVCMY | -1.08 ± 1.1
80 | LLLLTHYEAITR | 0.305 ± 0.43
81 | LLLYEMFSKVGLLFPSYFKY | inactive
82 | LLMFAMYIQIRLLSTATYIV | -0.564 ± 0.79
83 | LLMQYPSLVMVAGRFLVANL | -0.082 ± 0.5
84 | LLMRVFRGESR | -1.02 ± 0.49
85 | LLMVFHTTKY | 6.665 ± 0.026
86 | LLNALCMWMPM | 6.876 ± 0.051
87 | LLQILTNQKVNGTCSQRF | -1.48 ± 0.78
88 | LLQIQCICEGMRQWMLKYYY | -0.994 ± 1.1
89 | LLSECWLESGPSGASTC | 1.5 ± 0.5
90 | LLSNFGHVRNSSDKLLLFWS | 2.9 ± 0.18
91 | LLSSSTIIHLRMCMIHGSFW | 0.791 ± 0.67
92 | LLSVVKCACEMRTTKAVIGA | 2.05 ± 0.35
93 | LLSWVHR | -0.357 ± 0.5
94 | LLTGQALFGRASY | 0.122 ± 0.37
95 | LLVKTNYVCGALTNGRMNGT | 2.12 ± 0.081
96 | LLWNVGIVYSHMQVFVMRRY | 1.23 ± 0.13
97 | LLYEPFVWVYKHRYVVTGYS | -1.76 ± 0.76
98 | LLYTCFGVREVQMVTYRNAS | 4 ± 0.063
99 | LMAKLPAINEYPPF | -0.04 ± 0.56
100 | LMATHQPGTFMAGCTTGSEH | 0.914 ± 0.18

Row | Substance | amyloid nucleation score
101 | LMGLFREFFRYILFGCINQF | -0.419 ± 0.27
102 | LMILRRVVKEPESANKFCGY | inactive
103 | LMISCSYICSVVDYHLMGGS | 3.55 ± 0.06
104 | LMNMSSRSTQCNNQG | -0.139 ± 0.55
105 | LMRRHRA | 0.954 ± 0.25
106 | LMSMVCSESL | -0.555 ± 0.35
107 | LMSSLFPLSSACY | -0.545 ± 0.38
108 | LMYFMNGL | 0.045 ± 0.63
109 | LMYVGFTRMRKKINRKVYLV | 3.19 ± 0.1
110 | LNCFYEPTSGSKLYTLRPAF | -0.107 ± 1
111 | LNCVFLSLSQTGGSCELDFV | 7.007 ± 0.043
112 | LNFDLLTMFWT | 0.182 ± 0.79
113 | LNGYATLCYPVILSRIVYGP | 4.03 ± 0.043
114 | LNIYF | 3.13 ± 0.11
115 | LNLIHR | 0.153 ± 0.79
116 | LNLILIDFKTSRCVERPFRE | 7.052 ± 0.051
117 | LNNGCCMSLPVPTRPDDRDK | 0.356 ± 0.8
118 | LNPRNQCERRCFSVSGLKWY | -0.899 ± 0.64
119 | LNRVQLNLRGQRITLSHYQI | -0.536 ± 1.1
120 | LNSFVPVDSRVVTSAEWYAG | 0.889 ± 0.23
121 | LNVHCAGCCANWPLC | 9.041 ± 0.026
122 | LNVLISYMHRVWRYIVSAR | 0.362 ± 0.35
123 | LNVTSLLIVRLRCVFLHPTD | 2.15 ± 0.44
124 | LNVWRLFRRWWEWRRDCEFA | 0.435 ± 0.37
125 | LNYALLVEFCLCLNPDNNSS | 8.57 ± 0.055

Row | Substance | amyloid nucleation score
126 | LPFLPSCVVEKQVEYVWIRG | 0.332 ± 0.25
127 | LPLWLIDIALFLSFCIVGQS | -0.369 ± 1.1
128 | LPQVPRVFRS | -0.06 ± 1.1
129 | LPTIGVWLTRPRVCFLSYSV | 0.045 ± 0.63
130 | LPVQAYAS | inactive
131 | LPWHICLVHPR | 1.81 ± 0.078
132 | LPWLWQLTFPFWA | 0.582 ± 0.37
133 | LPYRSCLWFFFDIRNDVRVG | 2.25 ± 0.12
134 | LQASDKGKLLRTIPLRHYVP | 1.02 ± 0.33
135 | LQDAHHSVVCVRQSCYERLG | -0.187 ± 0.65
136 | LQDLTWRLCFKVWCDHSPEN | 4.08 ± 0.091
137 | LQKDYTSMH | inactive
138 | LQRYRFSNACI | inactive
139 | LQVTPIIPYCVSELYMYGGM | -0.097 ± 0.79
140 | LRAGTKWTNPFEQVYMTWCG | 0.044 ± 1.1
141 | LRAHFWGDD | 0.335 ± 0.31
142 | LRFCYKEATV | 0.016 ± 0.65
143 | LRFLVGVHAAYYIHTS | -0.649 ± 0.79
144 | LRFVEPTTCVWGRDLFGAHS | 0.545 ± 0.53
145 | LRHWCE | 0.218 ± 0.18
146 | LRIVICT | -1.63 ± 0.62
147 | LRLGRLPFMRSISVTCKNEL | 1.91 ± 0.32
148 | LRLLQVVGVCCSGTWVDGCW | 6.074 ± 0.04
149 | LRLTRVYSSYRESVKKKI | 0.418 ± 0.21
150 | LRLTYSWSYSCLLITNQRQN | -0.009 ± 0.65

Row | Substance | amyloid nucleation score
151 | LRNDDIY | -0.533 ± 0.39
152 | LRNLS | -0.919 ± 1
153 | LRRVFQISERRNKLWLYEEC | 0.6 ± 0.74
154 | LRRYYQCGTRLLIRFRMLEV | 1 ± 0.34
155 | LRSCSCIGKLDEEPGGFACA | -0.956 ± 0.78
156 | LRTISCIITLVGWITASTKH | 0.124 ± 0.62
157 | LRVKKYTDFHELEVGLFFWL | inactive
158 | LRVWVTAFFFSVMMCEQMFQ | inactive
159 | LRYNIMWKQHNATAYDEYRA | 3.65 ± 0.12
160 | LSAGPALHSYLSGNVFSIEL | 2.69 ± 0.069
161 | LSARFHHAKFLNYSDSRVGQ | inactive
162 | LSCCYDDHRLQGRCGSGRFH | 0.946 ± 0.27
163 | LSCLK | -0.344 ± 0.28
164 | LSCRWHCIVTLDVAAYNEPE | 5.765 ± 0.044
165 | LSEMYTFCEDSRAFTVYWTF | -1.02 ± 0.45
166 | LSGLEDMSISSNDYSSDVAR | 0.45 ± 0.8
167 | LSGRCFFNVLLINCKRTERI | 2.1 ± 0.19
168 | LSHILMI | inactive
169 | LSIHLQRTQWYLLFEW | 0.01 ± 0.39
170 | LSKCHCNILCVLMTCMWHLY | 0.333 ± 0.46
171 | LSKLNGGSSVTSV | 0.665 ± 0.2
172 | LSKRIDSRDMLGSGNHRCLL | -0.655 ± 0.64

Reference: the supplement of paper PMC12042874
